{"source": "patent US20190276499A1", "about": "“Protein VII Fragments and Methods of Use Thereof for the Treatment of Inflammatory Disorders” (priority 2016, published 2019)", "molecules": {"B1": {"name": "protein VII: mature protein VII of human adenovirus type 5 (SEQ ID NO:1), expressed in cells, mostly with C-terminal HA tag (protein)", "chain": "AKKRSDQHPVRVRGHYRAPWGAHKRGRTGRTTVDDAIDAVVEEARNYTPTPPPVSTVDAAIQTVVRGARRYAKMKRRRRRVARRHRRRPGTAAQRAAAALLNRARRTGRRAAMRAARRLAAGIVTVPPRSRRRAAAAAAAAISAMTQGRRGNVYWVRDSVSGLRVPVRTRPPRN", "modifications": "C-terminal HA tag; Human adenovirus 5"}}, "format_in_all_cases": "cell-based", "key": {"[1]": {"target": "T1, HMGB1 (Homo sapiens, UniProt P09429)", "T1 sequence (P09429 1-215)": "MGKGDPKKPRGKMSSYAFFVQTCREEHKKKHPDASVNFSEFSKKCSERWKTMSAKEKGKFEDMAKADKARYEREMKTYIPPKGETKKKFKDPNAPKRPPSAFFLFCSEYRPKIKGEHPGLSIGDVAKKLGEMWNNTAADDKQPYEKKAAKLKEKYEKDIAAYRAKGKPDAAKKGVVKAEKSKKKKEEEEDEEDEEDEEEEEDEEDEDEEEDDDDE", "experiment": "Co-immunoprecipitation of HMGB1 with protein VII-HA in A549 cells", "set-up": "endogenous in cells; host or cells: A549", "conditions": "A549 cells induced 4 days", "protocol": "A549 cells were induced to express protein VII with doxycycline for four days as described above. Approximately 4×10^7 cells were harvested and pelleted for each immunoprecipitation reaction. Cell pellets were resuspended in 500 μl of IC wash buffer with protease inhibitors (20 mM HEPES pH 7.9, 110 mM KOAc, 2 mM MgCl2, 150 mM NaCl, 0.1% Tween-20, 0.1% Triton X) and incubated on ice for 10 minutes with intermittent vortexing to disrupt cells. Samples were then incubated on ice for 1 hour with 5 μl of benzonase (Millipore) added to each sample to digest DNA to ˜150 bp, which was confirmed by DNA isolation and agarose gel analysis. Samples were then sonicated in a Diagenode Bioruptre for 30 seconds on and 30 seconds off for five rounds at 4° C. and centrifuged at 14,000 g for 15 minutes at 4° C. Supernatants were then incubated rotating for 1 hour at 4° C. with 30 μl of HA-conjugated magnetic beads (Thermo Scientific) and washed three times for five minutes in IC buffer. Isolated proteins were eluted with 100 μl of 2 mg/ml HA peptide (Thermo Scientific) for 20 minutes rotating at 37° C. and separated on and SDS-PAGE gel. For protein separation by SDS-PAGE the NuPAGE IDE System was used (NuPAGE Novex 4-12% bis-tris 1.0 mm gels, Invitrogen, USA). Uninduced cells were used as a negative control. […]"}, "[2]": {"target": "T1, HMGB1", "experiment": "Fluorescence recovery after photobleaching (FRAP) of HMGB1-mGFP", "protocol": "Full-length HMGB1 was cloned from pcDNA3.1 Flag-hHMGB1 (Addgene 31609) into pEGFP-N1 containing a L221K mutation to prevent dimerization of GFP molecules (Zacharias et al. (2002) Science 296:913-916). A549 cells were induced to express protein VII for four days with doxycycline in glass-bottom dishes. Cells were then transfected with the construct that constitutively expresses HMGB1 with a monomeric GFP C-terminal tag. FRAP was carried out using standard methods on a Zeiss LSM confocal microscope. Diffusion coefficients were calculated using the “simFRAP” algorithm (imagej.nih.gov/ij/plugins/simfrap/index.html), a simulation based approach to FRAP analysis (Blumenthal et al. (2015) Sci. Rep., 5:11655)."}, "[3]": {"target": "T1, HMGB1", "experiment": "Precision cut lung slice (PCLS) immunofluorescence", "set-up": "tissue National Disease Research Interchange (NDRI); host or cells: human precision cut lung slices", "conditions": "PCLS from human donors", "protocol": "PCLS were obtained and prepared as described (Cooper et al. (2008) J. Allergy Clin. Immunol., 122:734-740; Koziol-White et al. (2011) Expert Rev. Respir. Med., 5:767-777). De-identified human lung tissue from donors was obtained from the National Disease Research Interchange (NDRI), Philadelphia, Pa. Samples were infected with 10^8 pfu of Ad5 per slice or 10^9 GC of rAd VII-GFP for 24 hours. Samples were fixed in 4% PFA at room temperature for 15 minutes and washed three times in PBS. Samples were permiabilized with 0.5% Triton X and washed twice more in PBS. Samples were then incubated with 3% BSA and 0.03% Triton X in PBS for 1 hour to block. Primary antibodies (DBP or HMGB1) were incubated in the same buffer for 1 hour and then samples were washed three times in PBS with 3% BSA, incubated with secondary antibodies and DAPI for 1 hour, and washed three more times. Whole slices were mounted on slides with mounting solution and imaged by confocal microscopy."}, "[4]": {"target": "T2, HMGB2 (Homo sapiens, UniProt P26583)", "T2 construct": "endogenous in cells; host or cells: THP-1 (PMA-differentiated)", "T2 sequence (P26583 1-209)": "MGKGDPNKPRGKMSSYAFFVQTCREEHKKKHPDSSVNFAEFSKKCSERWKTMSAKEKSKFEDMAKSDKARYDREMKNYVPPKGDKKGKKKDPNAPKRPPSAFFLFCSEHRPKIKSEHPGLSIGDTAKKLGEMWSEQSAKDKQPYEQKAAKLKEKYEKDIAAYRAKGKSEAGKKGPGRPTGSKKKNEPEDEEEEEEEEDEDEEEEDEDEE", "experiment": "Release assay of HMGB2 in THP-1 cells", "conditions": "PMA-treated THP-1 cells, LPS plus nigericin", "protocol": "THP-1 cells were seeded at a density of 2×10^5 cells per well in a 24-well plate, and stimulated into macrophage-like cells by addition of 10 ng/mL PMA for 48 hours. Cells were washed in PBS and transduced with recombinant adenovirus vectors expressing only GFP or protein VII-GFP such that >90% of cells were GFP positive. At 48 hours post transduction, cells were washed and 200 μL of serum free RPMI was added. To stimulate the inflammasome, LPS (Sigma-Aldrich L2880) with a final concentration of 0.5 μg/mL was added to wells and incubated for 2 hours, then nigericin (Sigma-Aldrich N7143) was added with a final concentration of 10 μM for 1 hour. Supernatants were collected and proteins precipitated overnight at 4° C. with a final concentration of 20% trichloroacetic acid (Sigma), washed with acetone, dried, and resuspended in 1×sample buffer with reducing agent (Invitrogen). For ELISA analysis, supernatants were harvested directly and HMGB1 content was detected by the manufacturer's instructions (Chondrex 6010). Cells were also harvested by the addition of 1×sample buffer with reducing agent (Invitrogen) and boiled. Supernatants and lysates were analyzed together by western blot."}}, "data": [{"molecule": "B1", "values": [{"measurement": "HMGB1 co-immunoprecipitation with protein VII", "setting": "[1]", "value": "confirmed"}, {"measurement": "HMGB1 mobility by FRAP", "setting": "[2]; A549 cells expressing protein VII, HMGB1-mGFP", "value": "decreased HMGB1 diffusion"}, {"measurement": "Fluorescence recovery after photo-bleaching of full-length HMGB1 and HMGB1 A box", "setting": "[2]; upon expression of protein VII", "value": "dramatically delayed"}, {"measurement": "Relocalization of endogenous HMGB1 in lung slices", "setting": "[3]", "value": "sufficient to relocalize endogenous HMGB1"}, {"measurement": "HMGB2 in supernatants", "setting": "[4]", "value": "reduced levels"}]}]}
